# From US20130035289A1, “PHARMACEUTICAL COMPOSITION FOR TREATMENT OF THROMBOSIS-RELATED DISEASES COMPRISING A FRAGMENT OF PROLACTIN (PRL)-GROWTH HORMONE (GH)-PLACENTAL LACTOGEN (PL)-FAMILY PROTEIN” (UNIVERSITE DE LIEGE, priority 2010, published 2013)
# Legend:
# PAI-1 [1] = target: T1, PAI-1 (Homo sapiens, UniProt P05121); assay: Inhibition of PAI-1 anti-proteolytic activity, uPA/plasminogen chromogenic (colorimetric) assay; type: biochemical; settings: uPA, bovine plasminogen, PAI-1, absorbance 405 nm
# T1 construct: gift of Pr; P. Declerck
# T1 sequence (P05121 24-402): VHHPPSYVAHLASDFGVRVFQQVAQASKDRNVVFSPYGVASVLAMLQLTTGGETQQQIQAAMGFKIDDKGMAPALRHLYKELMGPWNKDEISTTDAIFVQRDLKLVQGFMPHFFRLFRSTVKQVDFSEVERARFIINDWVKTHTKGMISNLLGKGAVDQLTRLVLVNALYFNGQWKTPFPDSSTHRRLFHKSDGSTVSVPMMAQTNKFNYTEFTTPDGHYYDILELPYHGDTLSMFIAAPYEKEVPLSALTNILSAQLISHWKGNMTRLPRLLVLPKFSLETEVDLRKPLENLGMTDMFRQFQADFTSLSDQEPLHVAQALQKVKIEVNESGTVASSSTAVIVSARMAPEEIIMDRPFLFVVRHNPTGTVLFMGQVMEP
# Description: The main physiological function of PAI-1 is to inhibit uPA and tPA proteolytic activity. […] A chromogenic substrate for plasmin (Spectrozyme PL: 0.5 mM. American Diagnostica INC) in PBS was added to the mixture in 96-well microtitration plates and kept at room temperature. The release of free p-nitro-aniline from the chromogenic substrate was measured spectrophotometrically. The activity of plasmin was determined as the absorbance at 405 nm.
# PAI-1/tPA complex = target: T2, PAI-1/tPA complex (Homo sapiens, UniProt P05121); assay: Complex formation between PAI-1 and tPA by SDS-PAGE (silver staining); type: biochemical; settings: PAI-1 pre-incubated 10 min at 37° C. with 16K hPRL (5 μg) or 14K hGH (4 μg), then tPA
# T2 construct: purchased Calbiochem (tPA); PAI-1 a gift of Pr; P. Declerck
# T2 sequence (P05121 24-402, one chain of several): as the sequence (P05121 24-402) above
# Description: tPA/PAI-1 complex was formed 10 min after their incubation at 37° C. Pre-incubation of PAI-1 (4 μg) with 16K hPRL (5 μg) or 14K hGH (4 μg) during 10 min at 37° C., followed by a second 10 min incubation with tPA (2 μg) was stopped by the addition of sample buffer containing 5% β-Mercaptoethanol. Samples are heated at 95° C. before being analysed by SDS-PAGE. Silver staining was performed on the gel to visualize protein bands and complexes.
# PAI-1 [2] = target: T1, PAI-1; assay: In vitro clot lysis assay in pooled normal human plasma with added PAI-1 and tPA; type: biochemical; settings: 3 μM protein, recombinant PAI-1, tPA
# Description: Clot lysis was performed as follows: pooled normal plasma were used in citrated tube. Recombinant wild type PAI-1 was incubated in the presence or in the absence of 16K hPRL (3 μM), 14K hGH (3 μM) or different peptides (25 μM) for 10 min at 37° C., before to be added to diluted plasma in tris tween buffer (75 μl of plasma in 200 μl of 10 mM TRIS pH 7.5, 0.01% tween 20), followed by a second incubation for 10 min at 37° C. tPA was added to each tube at the end to reach a final volume of […]. Aliquots from each tube (80 μl) were added in duplicate to 96 wells, each containing 20 μl CaCl2 to give the following final concentration per well of 10 mM. Clot formation and dissolution were monitored at RT measuring turbidity at 405 nm in 5 min intervals.
# PAI-1 [3] = target: T1, PAI-1; assay: Gal4 yeast two-hybrid system; type: binding
# uPA = target: T3, uPA (Homo sapiens, UniProt P00749+P05121); assay: Double immunofluorescence staining on HUVEC, co-localization with uPA; type: cell-based; settings: non permeabilized, 160 ng/ml
# T3 construct: endogenous in cells; host or cells: HUVEC
# Description: HUVEC were grown to 70% on gelatin-coated 35 mm dishes. After incubation at 37° C. with 14K hGH (160 ng/ml) or 16K hPRL (160 ng/ml), cells were washed with PBS at room temperature, non permeabilized and incubated for 1 hr at room temperature with mouse anti uPA (American Diagnostica INC. Greenwich, Conn.) 1/100, Rabbit anti Prolactin (Dako) 1/100 or rabbit anti human GH (home made) 1/100. Endothelial cells were washed in PBS and incubated with FITC horse anti mouse antibody (Vector Laboratory) and Texas Red Goat anti rabbit (Jackson Laboratory).
# HUVECs were grown to 70% confluence on gelatin-coated 35-mm dishes. After incubation for 3 h with 14K GH (160 ng/ml) or 16K PRL (160 ng/ml), the cells were washed with PBS at room temperature and incubated for 1 h at room temperature under non-permeabilization conditions with mouse anti uPA (American Diagnostica INC) diluted 1/100, rabbit anti prolactin (Dako) diluted 1/100, or rabbit anti human GH (home made) diluted 1/100. Endothelial cells were washed in PBS and incubated with FITC horse anti mouse (Vector Laboratory) and Texas red goat anti rabbit antibodies (Jackson Laboratory). […] After 3 washes in PBS for 10 min, the slides were covered with coverslips in mounting medium (Victor Laboratories Inc.) and analyzed by fluorescence microscopy.
# endothelial cells = assay: Endothelial cell adhesion assay on vitronectin; type: cell-based, bovine; settings: for increase of cell adhesion: absence of PAI-1 (si-RNA); for pro-adhesion effect: recombinant wild type PAI-1 added to culture medium
# Excerpt: ID NO: 35); PAI-1 […] ID NO: 36).
molecule,measurement,setting,value
"14K hGH: 14K N-terminal fragment of human growth hormone, recombinant, produced and purified from E. coli (protein) MFPTIPLSRLFDNAMLRAHRLHQLAFDTYQEFEEAYIPKEQKYSFLQNPQTSLSFSESIPTPSNREETQQKSNLELLRISLLLIQSWLEPVQFLRSVFANSLVYGASDSNVYDLLKDLEEGIQTLMGRLEDGSP",inhibition of PAI-1 function to inhibit uPA and tPA proteolytic activity,PAI-1 [1],significantly inhibited
same,PAI-1/tPA complex formation,PAI-1/tPA complex,completely abolished
same,clot lysis in human plasmas,PAI-1 [2],increased significantly
same,interaction with PAI-1 in yeast two-hybrid system,PAI-1 [3],found to interact
same,co-localization with uPA,uPA,co-localised at the cell surface
same,increase of cell adhesion,endothelial cells,not seen
same,pro-adhesion effect,endothelial cells,reduced significantly
"16K hPRL: 16K N-terminal human prolactin fragment, recombinant, produced and purified from E. coli (protein) LPICPGGAARCQVTLRDLFDRAVVLSHYIHNLSSEMFSEFDKRYTHGRGFITKAINSCHTSSLATPEDKEQAQQMNQKDFLSLIVSILRSWNEPLYHLVTEVRGMQEAPEAILSKAVEIEEQTKRLLEGMELIVSQVHP",inhibition of PAI-1 function to inhibit uPA and tPA proteolytic activity,PAI-1 [1],significantly inhibited
same,PAI-1/tPA complex formation,PAI-1/tPA complex,partially inhibit
same,clot lysis in human plasmas,PAI-1 [2],increased significantly
same,interaction with PAI-1 in yeast two-hybrid system,PAI-1 [3],interacts
same,co-localization with uPA,uPA,co-localised at the cell surface
same,increase of cell adhesion,endothelial cells,not seen
same,pro-adhesion effect,endothelial cells,reduced significantly
